From patent US20210155961 come the findings set out here.

The data set concerns the target T1, LvaB (untagged).
T1 chain: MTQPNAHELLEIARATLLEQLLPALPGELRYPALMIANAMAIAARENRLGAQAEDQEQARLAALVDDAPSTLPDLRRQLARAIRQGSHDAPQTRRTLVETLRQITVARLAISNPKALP

B1: MBP-LvaA (LvaA N-terminally tagged with maltose binding protein) (protein)
chain: MSSSPTISPASDTFAAMTDDHRLAEFIREQASATRVVIQARKRLSGGAIQENWLLDLLIEGGPWAGVRRWVLRSDALSALPASLDREQEFAVLQVVYQAGVKVPRPLWLCRDVRVHGRVFFLMEYVPGSAAGRALSTGAGPQGRAQLATQLGANLARLHQVRPPCATLCFLSVPDSSPALATIDAYRRYLDTLADAYPVLEWGLRWCELHAPRSSTLCLLHRDYRTGNYLASEEGLEAVLDWEFTGWGDPCEDLGWFTARCWRFTRPDLEAGGIGQLEDFLRGYHEVSSLCIERSRLHYWQVMATLRWAVIALQQGQRHLSGEEPSLELALTARLLPELELDILHMTGAEAP
With B1, the “abundance of CoA species by LC/MS in in vitro enzyme reactions (4HV-CoA to 4PV-CoA)” value is “A decrease of 4HV-CoA and an increase of the predicted 4PV-CoA intermediate was seen only when all four of the enzymes were present”.
